Like-named read-outs stand apart in the source and are kept apart here. Values belong to the molecule of their own block, whether it stands above or below them.
What was measured:
[1] = molecular target: T1, recombinant human chymase (Homo sapiens, UniProt P23946); assay: Inhibitor profile of recombinant human chymase (residual activity, chromogenic substrate); format: biochemical; conditions: none = 100
T1 construct: made in house; host or cells: Escherichia coli (XL1-Blue)
T1 sequence (P23946 22-247): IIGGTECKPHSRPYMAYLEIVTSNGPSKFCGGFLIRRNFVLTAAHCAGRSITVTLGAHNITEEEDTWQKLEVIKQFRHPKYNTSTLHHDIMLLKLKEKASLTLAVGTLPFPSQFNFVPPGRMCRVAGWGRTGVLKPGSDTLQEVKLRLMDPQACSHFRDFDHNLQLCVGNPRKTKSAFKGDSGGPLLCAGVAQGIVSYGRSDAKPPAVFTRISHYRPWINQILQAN
Method: (§1) Assays for chymase activity were carried out in cuvettes, which contained, in 1 ml, 80 μg of the chromogenic substrate succinyl-L-PheProPhe-p-nitroanilide in 30 mM Tris-HCl, pH 8.0, 1M NaCl. Samples were placed in a spectrophotometer and set to zero absorbance. The assay was initiated by mixing in approximately 10 μg of protein and absorbance at 405 nm was monitored as a function of time. Chymase activity was determined from the specific activity (110 absorbance units/mg/min at 37° C.; Caughey et al., 1988, Bioch. Biophys. Acta 952:142-149) and the slope of the absorbance vs. time plot.
(§2) MBP-chymase fusion protein, recovered in the insoluble fraction from cell extracts, was resuspended in lysis buffer containing β-mercaptoethanol and 8M urea. After sonication to completely resuspend the pellet, the sample was dialyzed against 10 mM sodium phosphate buffer, pH 7.2 overnight. Insoluble material was removed by centrifugation and the fusion protein was then purified by amylose affinity chromatography as above. The fusion protein was eluted from the resin with maltose and dialyzed against 20 mM Tris-HCl, pH 8.0, 100 mM NaCl. The protein was then exchanged into reducing buffer #1 (0.1M Tris-HCl, pH 8.7, 1 mM EDTA, 6M guanidine-HCl, 0.15M NaCl, 0.3 M reduced glutathione) and incubated at room temperature for 2 hours. The sample was diluted 100-fold into oxidizing buffer #2 (0.1 Tris-HCl, pH 8.0, 1 mM EDTA, 0.15M NaCl, 0.3 mM oxidized glutathione), stirred for 2-48 hr at room temperature, and concentrated 100-fold to 285 μg/ml by ultrafiltration using an Amicon stirred flow cell. Factor Xa cleavage reactions were carried out at room temperature overnight. Ten μl samples were periodically removed and assayed for chymase activity in the presence or absence of various proteinase inhibitors. Several control experiments were also performed as described below.

human heart chymase = conditions: none = 100, cited from earlier work
Chymase = conditions: general statement, no concentration; cited from earlier work
[2] = at 37° C.; Caughey et al., 1988; cited from earlier work
[3] = system: airway submucosal gland cells; conditions: cited from earlier work
[4] = Assay for chymase proteolytic activity on chromogenic substrate; format: biochemical; conditions: for activity released by Factor Xa: refolded fusion protein; for proteolytic activity on chromogenic substrate: not refolded, chymase substrate succinyl-L-PheProPhe-p-nitroanilide
Method: as §1, §2

Molecule: O=S(=O)(F)Cc1ccccc1 [PMSF, phenylmethylsulfonyl fluoride]
- % Residual Activity, Recombinant Enzyme ([1]; 1 mM inhibitor): 0%
- % Residual Activity, Heart Chymase (human heart chymase; 1 mM inhibitor): 0%

Molecule: CC(=O)N[C@@H](CC(C)C)C(=O)N[C@@H](CC(C)C)C(=O)N[C@H](C=O)CCCNC(=N)N [LEU, leupeptin]
- remaining activity at 10 µM ([1]; 10 μM inhibitor, read-out: % Residual Activity, Recombinant Enzyme): 100%
- % Residual Activity, Heart Chymase (human heart chymase; 10 μM inhibitor): 106%

- remaining activity at 100 µM ([1]; 100 μM inhibitor, read-out: % Residual Activity, Recombinant Enzyme): 0%
Molecule: Cc1ccc(S(=O)(=O)N[C@@H](Cc2ccccc2)C(=O)CCl)cc1 [TPCK, ptosyl-L-phenylalanine chloromethyl ketone]
- % Residual Activity, Heart Chymase (human heart chymase; 1 mM inhibitor): 30%

B1: SBTI: soybean trypsin inhibitor (protein)
chain: DFVLDNEGNPLENGGTYYILSDITAFGGIRAAPTGNERCPLTVVQSRNELDKGIGTIISSPYRIRFIAEGHPLSLKFDSFAVIMLCVGIPTEWSVVEDLPEGPAVKIGENKDAMDGWFRLERVSDDEFNNYKLVFCPQQAEDDKCGDIGISIDHDDGTRRLVVSKNKPLVVQFQKLDKESL
- % Residual Activity, Recombinant Enzyme ([1]; 25 μM inhibitor): 0%
- % Residual Activity, Heart Chymase (human heart chymase; 1 μM inhibitor): 0%
- % Residual Activity, Heart Chymase (human heart chymase; 100 μM inhibitor): 0%
- inhibition of chymase (Chymase): inhibited

B2: Chymase: serine protease with chymotrypsin-like substrate specificity of mast cells (protein)
chain: T1 sequence (P23946 22-247)
- specific activity [2]: 110 absorbance units/mg/min
- secretagogue activity [3]: extremely potent secretagogue

- activity released by Factor Xa ([4]; at 2 hours): 2.7 µg/mL
- activity released by Factor Xa ([4]; at 5 hours, remained at this level for up to 24 hours): 4.6 µg/mL
B3: recombinant human chymase: enzymatically active, recombinant human chymase released by Factor Xa cleavage of the refolded fusion protein (protein)
chain: T1 sequence (P23946 22-247)
- enzymatic activity of released recombinant human chymase ([4]; refolded fusion protein cleaved by Factor Xa, hydrolysis of the chymase substrate): enzymatically active

- proteolytic activity on chromogenic substrate [4]: inactive as a protease
B4: Free chymase: Free chymase, released by Factor Xa cleavage of the fusion protein (protein)
chain: T1 sequence (P23946 22-247)

- proteolytic activity on chromogenic substrate [4]: no detectable proteolytic activity
B5: MBP-chymase: catalytic domain of human mast cell chymase fused to the maltose binding protein of Escherichia coli, wild type chymase amino acid sequence (protein)
chain: IEGRIIGGTECKPHSRPYMAYLEIVTSNGPSKFCGGFLIRRNFVLTAAHCAGRSITVTLGAHNITEEEDTWQKLEVIKQFRHPKYNTSTLHHDIMLLKLKEKASLTLAVGTLPFPSQFNFVPPGRMCRVAGWGRTGVLKPGSDTLQEVKLRLMDPQACSHFRDFDHNLQLCVGNPRKTKSAFKGDSGGPLLCAGVAQGIVSYGRSDAKPPAVFTRISHYRPWINQILQAN
- enzymatic activity on the chymase substrate (control experiments) ([4]; Factor Xa alone, or fusion protein in the absence of Factor Xa): did not result in detectable enzymatic activity
